{"source": "patent US20220323598A1", "about": "(NATIONAL UNIVERSITY CORPORATION TOKAI NATIONAL HIGHER …, published 2022)", "key": {"[1]": {"biological_target": "T1, human ROR1 protein (GenBank accession No. NP_005003.2) (human, UniProt Q01973 30-937)", "T1 construct": "whole, on cells; also called hROR1; endogenous human ROR1", "T1 sequence (Q01973 30-937)": "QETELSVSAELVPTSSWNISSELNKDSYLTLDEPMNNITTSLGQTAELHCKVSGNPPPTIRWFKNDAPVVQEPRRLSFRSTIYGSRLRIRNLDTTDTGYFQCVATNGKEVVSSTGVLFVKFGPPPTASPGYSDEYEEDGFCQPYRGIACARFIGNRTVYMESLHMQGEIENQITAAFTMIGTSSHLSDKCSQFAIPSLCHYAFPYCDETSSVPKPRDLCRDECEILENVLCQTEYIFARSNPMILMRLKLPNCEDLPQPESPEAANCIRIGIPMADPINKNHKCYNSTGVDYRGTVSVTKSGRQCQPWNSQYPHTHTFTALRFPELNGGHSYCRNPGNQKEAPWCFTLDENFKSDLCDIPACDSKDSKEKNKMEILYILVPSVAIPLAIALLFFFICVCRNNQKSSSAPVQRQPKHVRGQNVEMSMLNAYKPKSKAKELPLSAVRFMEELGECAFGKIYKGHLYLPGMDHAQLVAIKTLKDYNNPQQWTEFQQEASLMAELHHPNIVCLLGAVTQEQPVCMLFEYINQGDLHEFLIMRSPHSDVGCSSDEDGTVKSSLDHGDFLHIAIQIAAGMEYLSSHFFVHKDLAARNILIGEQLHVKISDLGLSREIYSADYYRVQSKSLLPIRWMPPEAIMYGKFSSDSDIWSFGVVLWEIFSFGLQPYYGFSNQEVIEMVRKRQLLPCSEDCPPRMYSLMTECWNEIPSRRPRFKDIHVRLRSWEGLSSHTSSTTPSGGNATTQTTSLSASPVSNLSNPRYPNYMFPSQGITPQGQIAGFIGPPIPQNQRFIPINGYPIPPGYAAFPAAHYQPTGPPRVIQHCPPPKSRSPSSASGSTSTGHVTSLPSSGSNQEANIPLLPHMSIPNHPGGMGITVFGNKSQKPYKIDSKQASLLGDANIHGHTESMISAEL", "experiment": "flow cytometry on NCI-H358 cells, relative affinity", "procedure": "To inspect response of the antibodies obtained as described above to an endogenous human ROR1, response to an ROR1 high expressing cell NCI-H358 (ATCC accession No. CRL-5807) line was observed as below. The antibodies were purified from the culture supernatant of each hybridoma clone by a general affinity purification method using Protein A-Sepharose, respectively. The obtained purified antibodies were analyzed for the average fluorescence intensity of flow cytometry under the same condition (the same number of NCI-H358 (1×10⁵), the same concentration of respective purified antibodies, and the same concentration of secondary (detected) antibodies). Further, data was acquired also for the average fluorescence intensity that depends on the antibody concentration, the detection limit at a low concentration was analyzed, and thereby relative affinity was evaluated. FIG. 2 to FIG. 4 illustrate the results in a form of graphs. The horizontal axis of each graph represents the used antibody concentration (ng/mL), and the vertical axis represents the average fluorescence intensity (MFI) in flow cytometry. FIG. 2A is a diagram illustrating the response of anti-human ROR1 antibodies to ROR1 expressing cells of acquired monoclonal antibodies (2 AM series and 2AC series). […]"}, "[2]": {"biological_target": "T1, human ROR1 protein (GenBank accession …)", "experiment": "flow cytometry, Alexa Fluor 488 labeled antibody at 1 µg/ml on ROR1 high (NCI-H1975, PC-9) and ROR1 low (A427, NCI-H460) expressing cell lines", "source_text": "To inspect response of antibodies obtained as described above to an endogenous human ROR1, the response to the ROR1 high expressing cell line (NCI-H1975, PC-9) and the ROR1 low expressing cell line (A427, NCI-H460) was observed as follows. Note that NCI-H1975 (ATCC accession No. CRL-5908), A427 (ATCC accession No. HTB-53), and NCI-H460 (ATCC accession No. HTB-177) were purchased from American Type Culture Collection. The PC-9 cell line (RCB 4455) was obtained from RIKEN cell bank. Various cell lines were seeded on 6-well dishes to have 2×10⁵/well, cultured at 37 degrees Celsius for 24 hours, and collected after PBS washing. After chimerized antibodies labeled by using Alexa Fluor (registered trademark) 488 Antibody Labeling Kit (Thermo Fisher Scientific; A20181) were diluted to 1 μg/ml and reacted on ice for one hour, the resultant was washed with a PBS, and the reaction intensity was analyzed by flow cytometry. […] FIG. 6 illustrates graphs indicating the response of chimerized antibodies to the ROR1 high expressing cell line and the ROR1 low expressing cell line."}}}
{"binder": "6AM_120-2 (antibody, mouse IgG1, V domains shown, VH was cloned with a mouse IgG1 CH1 primer and VL with a kappa constant region primer) VH: EIQLQQSGAELVKPGASVKISCKASGYSFTGYNMNWVKQSHGKSLEWIGNINPYYGNTSYNQKFKGKATLTVDKSSSTAYMQLNSLTSEDSAVYYCAREGFEYFDYWGQGTTLTVSS VL: DIQMTQSPASLSASVGETVTITCRASENIYSYLAWYQQKQGKSPQLLVYNVKTLAEGVPSRFSGSGSGTQFSLKINSLQPEDFGSYYCQHHYGIPYTFGSGTKLEIK", "values": [{"measurement": "binding result", "setting": "[1]", "result": "binds"}]}
{"binder": "chimeric antibody M3 (antibody, human IgG1, V domains shown, Mouse VH and VL of 6AM_120-2 in a vector carrying the human IgG1 constant region; also called chimerized antibody obtained from clone 6 AM_120-2) VH: EIQLQQSGAELVKPGASVKISCKASGYSFTGYNMNWVKQSHGKSLEWIGNINPYYGNTSYNQKFKGKATLTVDKSSSTAYMQLNSLTSEDSAVYYCAREGFEYFDYWGQGTTLTVSS VL: DIQMTQSPASLSASVGETVTITCRASENIYSYLAWYQQKQGKSPQLLVYNVKTLAEGVPSRFSGSGSGTQFSLKINSLQPEDFGSYYCQHHYGIPYTFGSGTKLEIK", "values": [{"measurement": "binding result", "setting": "[2]", "result": "binds"}]}
{"binder": "2DC_5-2 (antibody, mouse IgG1, V domains shown, VH was cloned with a mouse IgG1 CH1 primer and VL with a kappa constant region primer; also called clone 2DC_5-2) VH: EVKLVESGGGLVKPGGSLKLSCAASGFTFSSYAMSWVRQTPEKRLEWVAAINTKGGSTYYPDTVKDRFTISRDNAKNILYLQMSSLRSEDTALYYCARHEPVYDYAMDYWGQGTSVTVSS VL: DIKMTQSPSSMYASLGERVTITCKASQDINSYLSWFQQKPGKSPKTLIYRANRLVDGVPSRFSGSGSGQDYSLTISSLECGDMGIYYCLQYDEFPYTFGGGTKLEIK", "values": [{"measurement": "binding result", "setting": "[1]", "result": "binds"}]}
{"binder": "chimeric antibody M1 (antibody, human IgG1, V domains shown, Mouse VH and VL of 2DC_5-2 in a vector carrying the human IgG1 constant region; also called chimerized antibody obtained from clone 2DC_5-2) VH: EVKLVESGGGLVKPGGSLKLSCAASGFTFSSYAMSWVRQTPEKRLEWVAAINTKGGSTYYPDTVKDRFTISRDNAKNILYLQMSSLRSEDTALYYCARHEPVYDYAMDYWGQGTSVTVSS VL: DIKMTQSPSSMYASLGERVTITCKASQDINSYLSWFQQKPGKSPKTLIYRANRLVDGVPSRFSGSGSGQDYSLTISSLECGDMGIYYCLQYDEFPYTFGGGTKLEIK", "values": [{"measurement": "binding result", "setting": "[2]", "result": "binds"}]}
